In patent US7981997B2, “Growth factor which acts through ErbB-4 RTK” (Yeda Research And Development Co., priority 2000, dated 2011):

Legend:
[1] = biological target: T1, ErbB-4 co-expressed with ErbB-1 (Homo sapiens, UniProt Q15303); experiment: Covalent crosslinking to CHO cells co-transfected with ErbB-4 and ErbB-1; format: binding
T1 construct: expressed in transfected cells; host or cells: CHO (Chinese Hamster Ovary) cells, transient co-transfection
Protocol: CHO cells were transfected with vectors directing expression of the indicated ErbB proteins or their combinations. Two days later cell monolayers were incubated with either ^125I-NRG-1β or ^125I-NRG-4 (EGF-like domains, each at 100 ng/ml). Following 2 hours at 4° C., the covalent crosslinking reagent bis(sulfosuccinimdyl)-suberate (BS^3) was added (1 mM final concentration) and cell extracts prepared after an additional 45 minutes of incubation. The indicated ErbB proteins were then immunoprecipitated with mouse monoclonal antibodies, and the complexes resolved by gel electrophoresis and autoradiography. Arrows mark the locations of monomeric (M) and dimeric (D) receptor complexes.
Growth factors were labeled with Iodogen (Pierce) as described (Karunagaran et al., 1995). Chemical crosslinking to Chinese Hamster Ovary (CHO) cells engineered to express different ErbB combinations have been performed essentially as described (Tzahar et al., 1996). Briefly, radiolabeled ligands (at 100 ng/ml) were incubated for 2 hours with cell monolayers at 4 C. […] Non-specific binding was determined in the presence of a 100-fold molar excess of the unlabeled ligani. Cells were then washed, lysed in a solution containing 0.1 M NaOH and 0.1% SDS, and radioactivity determined by use of a gamma counter. […]

[2] = test system: Chinese Hamster Ovary (CHO) cell line; experiment: Binding to untransfected CHO cells (low ErbB-2, no other ErbB); conditions: cells express low amounts of ErbB-2, no other ErbB receptor
Protocol: To test the prediction that NRG-4 can recognize a surface-expressed ErbB-4, but no other membrane-bound ErbB protein, a Chinese Hamster Ovary (CHO) cell line was employed. […] CHO cells were transfected with plasmid vectors directing expression of ErbB-4, or co-transfected with an ErbB-4 plasmid together with vectors expressing one of the three other ErbB proteins. Two days later, cells were incubated with ^125I-NRG-4, or with a radiolabeled NRG-1 as control, and subsequently the formed ligand-receptor complexes were stabilized by using a covalent crosslinking reagent. Immunoprecipitation of the expressed ErbB proteins allowed analysis of the covalently held complexes. […] Nevertheless, both monomers and dimers of ErbB-4 were formed by the two ligands (detection of NRG-4-containing dimers required longer film exposures).

[3] = biological target: T2, IgB-1 (soluble ErbB-1) (Homo sapiens, UniProt P00533); experiment: Covalent crosslinking of radiolabeled ligands to soluble ErbB-IgG fusion, cell-free; format: binding; conditions: 125I-labeled ligand, BS3 crosslinking
T2 construct: Recombinant soluble extracellular domains of the four ErbB proteins (denoted IgB-1 through 4); made in house; host or cells: HEK-293 human embryonic kidney cells (conditioned medium)

[4] = biological target: T3, IgB-3 (soluble ErbB-3) (Homo sapiens, UniProt P21860); experiment: as above; format: binding; conditions: 125I-labeled ligand, BS3 crosslinking
T3 construct: Recombinant soluble extracellular domains of the four ErbB proteins (denoted IgB-1 through 4); made in house; host or cells: HEK-293 human embryonic kidney cells (conditioned medium)
Protocol: (§1) The four soluble forms of ErbB proteins, in the form of IgG fusions (denoted IgB-1 through 4), were separately incubated with the indicated radiolabeled growth factors. Where indicated (lower panel), an excess (100-fold) of unlabeled NRG-4 was co-incubated with the labeled ligand. Following 2 hours at 22° C., the covalent crosslinking reagent bis(sulfosuccinimdyl)-suberate (BS^3) was added (1 mM) and 45 minutes later the ligand-receptor complexes were immunoprecipitated with agarose-immobilized protein-A beads. Arrows mark the locations of monomeric (M) and dimeric (D) receptor complexes.
(§2) Growth factors were labeled with Iodogen (Pierce) as described (Karunagaran et al., 1995). Chemical crosslinking to Chinese Hamster Ovary (CHO) cells engineered to express different ErbB combinations have been performed essentially as described (Tzahar et al., 1996). Briefly, radiolabeled ligands (at 100 ng/ml) were incubated for 2 hours with cell monolayers at 4 C. The chemical crosslinking agent BS^3 (1 mM) was then added and the cells were further incubated for 45 minutes at 22 C. Mouse antibodies were first coupled to rabbit anti-mouse IgG and to protein A-Sepharose beads, and then they were incubated with cell extracts for 2 hours at 4 C. Immunoprecipitated complexes were then washed three times with ice-cold SBN buffer (1% NP-40; 150 mM NaCl; 10% Glycerol; 1 mM EGTA, in 50 mM Tris-HCl, pH 7.4; 1 ml per wash) prior to heating (5 minutes at 95 C) in gel sample buffer, resolution by gel electrophoresis, transfer to nitrocellulose and autoradiography. For crosslinking with IgBs, after co-incubation of IgB-containing conditioned media with radiolabeled ligands, complexes were immunoprecipitated directly with Sepharose-protein A beads. For ligand displacement analyses, cell monolayers were washed once with binding buffer, and then incubated for 2 hours at 4 C with radiolabeled […] (5 ng/ml) and various concentrations of unlabeled ligands, as indicated. Non-specific binding was determined in the presence of a 100-fold molar excess of the unlabeled ligani. Cells were then washed, lysed in a solution containing 0.1 M NaOH and 0.1% SDS, and radioactivity determined by use of a gamma counter.
(§3) In the first assay, binding studies in a cell-free system were performed with recombinant soluble forms of all four ErbB proteins. The soluble proteins, denoted IgB-1 through 4, consist of a dimeric fusion between the extracellular domain of the corresponding ErbB and the Fc portion of a human immunoglobulin G (Chen et al., 1996).

[5] = biological target: T4, IgB-4 (soluble ErbB-4) (Homo sapiens, UniProt Q15303); experiment: as above; format: binding
T4 construct: Recombinant soluble extracellular domains of the four ErbB proteins (denoted IgB-1 through 4); made in house; host or cells: HEK-293 human embryonic kidney cells (conditioned medium)
T4 sequence (Q15303 26-651 limits assumed): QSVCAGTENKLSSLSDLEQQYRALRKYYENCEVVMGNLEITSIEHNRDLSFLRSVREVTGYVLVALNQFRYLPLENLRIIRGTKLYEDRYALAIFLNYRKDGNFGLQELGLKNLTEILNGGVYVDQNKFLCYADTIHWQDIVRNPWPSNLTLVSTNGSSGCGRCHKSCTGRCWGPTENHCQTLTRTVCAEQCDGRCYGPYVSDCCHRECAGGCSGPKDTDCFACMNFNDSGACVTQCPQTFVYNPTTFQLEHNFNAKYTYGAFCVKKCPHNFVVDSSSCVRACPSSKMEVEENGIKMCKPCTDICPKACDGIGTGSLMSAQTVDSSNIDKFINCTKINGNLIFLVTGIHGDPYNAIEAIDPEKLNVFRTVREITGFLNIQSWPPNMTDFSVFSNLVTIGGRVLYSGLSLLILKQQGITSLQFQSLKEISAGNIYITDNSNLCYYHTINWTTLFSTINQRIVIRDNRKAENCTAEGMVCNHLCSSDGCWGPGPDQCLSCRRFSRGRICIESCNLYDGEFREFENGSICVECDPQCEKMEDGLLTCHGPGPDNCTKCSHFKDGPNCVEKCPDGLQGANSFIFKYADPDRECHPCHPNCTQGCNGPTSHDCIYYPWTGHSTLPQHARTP
Protocol: as §1, §2, §3

[6] = biological target: T5, IgB-2 (soluble ErbB-2) (Homo sapiens, UniProt P04626); experiment: as above; format: binding; conditions: 125I-labeled ligand, BS3 crosslinking
T5 construct: Recombinant soluble extracellular domains of the four ErbB proteins (denoted IgB-1 through 4); made in house; host or cells: HEK-293 human embryonic kidney cells (conditioned medium)
Protocol: as §1, §2, §3

T3 sequence (P21860 20-643 limits assumed): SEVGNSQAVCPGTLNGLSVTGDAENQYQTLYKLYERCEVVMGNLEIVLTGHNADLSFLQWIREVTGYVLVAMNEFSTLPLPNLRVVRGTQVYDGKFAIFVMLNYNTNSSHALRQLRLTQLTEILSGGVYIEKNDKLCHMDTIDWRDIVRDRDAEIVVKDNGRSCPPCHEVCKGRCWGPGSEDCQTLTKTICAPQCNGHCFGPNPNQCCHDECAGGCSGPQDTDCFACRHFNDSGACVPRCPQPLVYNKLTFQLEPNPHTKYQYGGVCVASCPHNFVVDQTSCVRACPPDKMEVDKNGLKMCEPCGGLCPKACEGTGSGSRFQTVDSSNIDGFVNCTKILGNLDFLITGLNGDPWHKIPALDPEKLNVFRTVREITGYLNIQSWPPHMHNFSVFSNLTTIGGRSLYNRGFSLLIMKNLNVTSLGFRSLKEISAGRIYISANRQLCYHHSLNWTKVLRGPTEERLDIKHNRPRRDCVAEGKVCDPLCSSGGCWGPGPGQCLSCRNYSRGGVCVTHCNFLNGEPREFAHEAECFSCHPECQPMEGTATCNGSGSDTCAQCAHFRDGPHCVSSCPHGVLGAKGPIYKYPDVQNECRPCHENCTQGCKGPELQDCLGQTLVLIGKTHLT

B1: NRG-4: synthetic refolded mouse EGF-like domain of NRG-4 (residues 4 to 50, SEQ ID NO:2) (peptide, listed as Mus musculus)
chain: MPTDHEQPCGPRHRSFCLNGGICYVIPTIPSPFCRCIENYTGARCEEVFLPSSSIPSESNLSAAFVVLAVLLTLTIAALCFLCRKGHLQRASSVQCEISLVETNNTRTRHSHREH
- effect of ErbB-1 co-expression on the radioactive signal ([1]; CHO cells, ErbB-4 + ErbB-1): did not significantly affect the radioactive signals
- heterodimers of ErbB-4 with ErbB-1 ([1]; precipitation with anti-ErbB-1 antibodies): existence of NRG-4-promoted heterodimers
- binding to untransfected CHO cells [2]: failed to bind
- binding to IgB-1 (covalent crosslinking signal) [3]: low or no binding
- binding to IgB-3 (covalent crosslinking signal) [4]: low or no binding
- binding to IgB-4 (covalent crosslinking signal) ([5]; 125I-labeled ligand, BS3 crosslinking): only weakly
- displacement of the radioactive ligand from IgB-4 by unlabeled NRG-4 ([5]; unlabeled NRG-4 at 100-fold molar excess): efficient displacement
- binding to IgB-2 (covalent crosslinking signal) [6]: low or no binding
